T1: human GM-CSFRα (human, UniProt P15509 23-400)
T1 sequence: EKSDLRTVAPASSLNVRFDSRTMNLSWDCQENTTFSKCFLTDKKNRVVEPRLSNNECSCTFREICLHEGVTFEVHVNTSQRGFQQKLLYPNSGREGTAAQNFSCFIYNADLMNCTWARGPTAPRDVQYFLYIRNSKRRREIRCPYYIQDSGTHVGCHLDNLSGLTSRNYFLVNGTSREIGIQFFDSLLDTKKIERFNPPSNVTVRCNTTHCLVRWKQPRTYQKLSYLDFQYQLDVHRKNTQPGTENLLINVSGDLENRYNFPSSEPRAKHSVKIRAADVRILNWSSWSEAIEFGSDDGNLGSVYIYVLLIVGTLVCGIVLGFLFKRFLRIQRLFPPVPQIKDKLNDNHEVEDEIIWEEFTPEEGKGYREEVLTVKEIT

T2: recombinant purification-tagged human GM-CSF receptor α extracellular domain (human, UniProt P15509 23-320)
T2 construct: Amino acids 1 to 298 of the mature receptor; also called purified GM-CSFRα extracellular domain; soluble extracellular domain of GM-CSFRα; not shown: N-terminal purification tag; Flag-tagged
T2 sequence: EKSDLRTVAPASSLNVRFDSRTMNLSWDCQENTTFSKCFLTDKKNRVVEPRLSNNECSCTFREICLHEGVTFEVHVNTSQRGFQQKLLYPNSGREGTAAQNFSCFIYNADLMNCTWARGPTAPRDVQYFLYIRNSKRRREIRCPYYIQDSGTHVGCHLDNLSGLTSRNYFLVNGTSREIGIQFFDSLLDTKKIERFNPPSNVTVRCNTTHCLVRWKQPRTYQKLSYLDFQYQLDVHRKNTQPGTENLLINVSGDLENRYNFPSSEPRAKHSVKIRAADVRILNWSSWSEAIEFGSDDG


Experiments:
cynomolgus GM-CSFRα = cynomolgus GM-CSFRα (cynomolgus); test: cell-based or functional assay
human GM-CSFRα [1] = biological target: T1, human GM-CSFRα; test: cell-based or functional assay
[2] = biological target: T2, recombinant purification-tagged human …; test: SPR (BIAcore 2000); IgG4 captured on protein A, tagged receptor ECD as analyte; 1:1 Langmuir fit
human GM-CSFRα [3] = biological target: T1, human GM-CSFRα; test: cell-based or functional assay; remark: listed apart in the source
human GM-CSFRα [4] = biological target: T1, human GM-CSFRα; test: cell-based or functional assay; remark: listed apart in the source

| Binder | IC50, cynomolgus granulocyte shape change assay (cynomolgus GM-CSFRα) | IC50, TF-1 proliferation assay (7 pM human GM-CSF) (human GM-CSFRα [1]) | Kd [2] | IC50, monocyte TNFα release assay (1 nM human GM-CSF) (human GM-CSFRα [3]) | IC50, human granulocyte shape change assay (7 pM human GM-CSF) (human GM-CSFRα [4]) |
| --- | --- | --- | --- | --- | --- |
| Antibody 3 (28G5), parent antibody (antibody, V domains shown) VH: QVQLVQSGAEVKKPGASVKVSCKISGHSLSELSIHWVRQTPTKGFEWMGGFDPEENEIVYAQRFQGRVTMTEDTSIDTAYLTLSSLRSDDTAVYYCSIVGSFSGWAFDYWGKGTMVTVSS VL: QAVLTQPSSVSGAPGQRVTISCTGSGSNIGAPYDVSWYQQLPGTAPKLLIYHNNKRPSGVPDRFSASKSGTSASLAITGLQADDEADYYCQSYDSSLSGSVFGGGTKVTVL | ~5000 pM | – | – | – | – |
| Antibody 19 (antibody, V domains shown, also called Ab19) VH: QVQLVQSGAEVKKPGASVKVSCKISGHSLSELSIHWVRQTPTKGFEWMGGFDPEENEIVYAQRFQGRVTMTEDTSIDTAYLTLSSLRSDDTAVYYCAIVGSVSRITYGFWGKGTMVTVSS VL: QAVLTQPSSVSGAPGQRVTISCTGSGSNIGAPYDVSWYQQLPGTAPKLLIYHNNKRPSGVPDRFSASKSGTSASLAITGLQADDEADYYCQSYDSRNPHVIFGGGTKLTVL | – | 23.8 pM | 388 pM | – | – |
| Antibody 6, non-germlined IgG4 (antibody, V domains shown) VH: QVQLVQSGAEVKKPGASVKVSCKISGHSLSELSIHWVRQTPTKGFEWMGGFDPEENEIVYAQRFQGRVTMTEDTSIDTAYLTLSSLRSDDTAVYYCSIVGSFSPLTLGLWGKGTMVTVSS VL: QAVLTQPSSVSGAPGQRVTISCTGSGSNIGAPYDVSWYQQLPGTAPKLLIYHNNKRPSGVPDRFSASKSGTSASLAITGLQADDEADYYCATVEAGLSGSVFGGGTKLTVL | – | 0.97 pM | 139 pM | 43 pM | 13.3 pM |
| Antibody 12 (antibody, V domains shown, also called Ab12) VH: QVQLVQSGAEVKKPGASVKVSCKISGHSLSELSIHWVRQTPTKGFEWMGGFDPEENEIVYAQRFQGRVTMTEDTSIDTAYLTLSSLRSDDTAVYYCSIVGSFSGWAFDYWGKGTMVTVSS VL: QAVLTQPSSVSGAPGQRVTISCTGSGSNIGAPYDVSWYQQLPGTAPKLLIYHNNKRPSGVPDRFSASKSGTSASLAITGLQADDEADYYCQSYDSEPTEIRFGGGTKLTVL | – | 246 pM | 3020 pM | – | – |
| Antibody 11 (antibody, V domains shown) VH: QVQLVQSGAEVKKPEASVKVSCKIPGHSLSELSIHWVRQTPTKGFEWMGGFDPEENEIVYAQRFQGRVTMTEDTSIDTAYLTLSSLRSDDTAVYYCAIVGSFSPITYGLWGKGTMVTVSS VL: QAVLTQPSSVSGVPGQRVTISCTGSGSNIGAPYDVSWYQQLPGTAPKLLIYHNNKRPSGVPDRFSASKSGTSASLAITGLQADDEADYYCQSYDSSLSGSVFGGGTKVTVL | – | 9 pM | – | – | 90 pM |
| Antibody 16 (antibody, V domains shown, also called Ab16) VH: QVQLVQSGAEVKKPGASVKVSCKISGHSLSELSIHWVRQTPTKGFEWMGGFDPEENEIVYAQRFQGRVTMTEDTSIDTAYLTLSSLRSDDTAVYYCSIVGSFSPLTMGLWGKGTMVTVSS VL: QAVLTQPSSVSGAPGQRVTISCTGSGSNIGAPYDVSWYQQLPGTAPKLLIYHNNKRPSGVPDRFSASKSGTSASLAITGLQAEDEADYYCATSDEILSGSVFGGGTKVTVL | – | 12.8 pM | 1140 pM | – | 16 pM |
| Antibody 9 (antibody, V domains shown) VH: QVQLVQSGAEVKKPGASVKVSCKISGHSLSELSIHWVRQTPTKGFEWMGGFDPEENEIVYAQRFQGRVTMTEDTSIDTAYLTLSSLRSDDTAVYYCAIVGSFSPVTYGLWGQGTMVTVSS VL: QAVLTQPSSVSGAPGQRVTISCTGSGSNIGAPYDVSWYQQLPGTAPKLLIYHNNKRPSGVPDRFSASKSGTSASLAITGLQADDEADYYCQSYDSSLSGSVFGGGTKVTVL | – | 40.8 pM | – | 74 pM | 44 pM |
| Antibody 4 (antibody, V domains shown, also called Antibody 04; Ab4) VH: QVQLVQSGAEVKKPGASVKVSCKISGHSLSELSIHWVRQTPTKGFEWMGGFDPEENEIVYAQRFQGRVTMTEDTSIDTAYLTLSSLRSDDTAVYYCAIVGSFSPPTYGYWGKGTMVTVSS VL: QAVLTQPSSVSGAPGQRVTISCTGSGSNIGAPYDVSWYQQLPGTAPKLLIYHNNKRPSGVPDRFSASKSGTSASLAITGLQADDEADYYCQSYDSSLSGSVFGGGTKVTVL | – | 48 pM | 4070 pM | – | – |
| Antibody 17 (antibody, V domains shown, also called Ab17) VH: QVQLVQSGAEVKKPGASVKVSCKISGHSLSELSIHWVRQTPTKGFEWMGGFDPEENEIVYAQRFQGRVTMTEDTSIDTAYLTLSSLRSDDTAVYYCSIVGSFSPLTMGLWGKGTMVTVSS VL: QAVLTQPSSVSGAPGQRVTISCTGSGSNIGAPYDVSWYQQLPGTAPKLLIYHNNKRPSGVPDRFSASKSGTSASLAITGLQADDEADYYCATVEDGLSGSVFGGGTKVTVL | – | 14.3 pM | 193 pM | – | – |
| Antibody 14 (antibody, V domains shown, also called Ab14) VH: QVQLVQSGAEVKKPGASVKVSCKISGHSLSELSIHWVRQTPTKGFEWMGGFDPEENEIVYAQRFQGRVTMTEDTSIDTAYLTLSSLRSDDTAVYYCSILGSVTAWAFDYWGKGTMVTVSS VL: QAVLTQPSSVSGAPGQRVTISCTGSGSNIGAPYDVSWYQQLPGTAPKLLIYHNNKRPSGVPDRFSASKSGTSASLAITGLQADDEADYYCQSYDSEDRMTEFGGGTKVTVL | – | 16.3 pM | 502 pM | – | – |
| Antibody 8 (antibody, V domains shown, also called Antibody 08; Ab8) VH: QVQLVQSGAEVKKPGASVKVSCKISGHSLSELSIHWVRQTPTKGFEWMGGFDPEENEIVYAQRFQGRVTMTEDTSIDTAYLTLSSLRSDDTAVYYCAIVGSFSPPAYRPWGKGTMVTVSS VL: QAVLTQPSSVSGAPGQRVTISCTGSGSNIGAPYDVSWYQQLPGTAPKLLIYHNNKRPSGVPDRFSASKSGTSASLAITGLQADDEADYYCQSYDSSLSGSVFGGGTKVTVL | – | 34.5 pM | 552 pM | – | – |
| Antibody 10 (antibody, V domains shown, also called Ab10) VH: QVQLVQSGAEVKKPGASVKVSCKISGHSLSELSIHWVRQTPTKGFEWMGGFDPEENEIVYAQRFQGRVTMTEDTSIDTAYLTLSSLRSDDTAVYYCAIVGSFSGLAYRPWGKGTMVTISS VL: QAVLTQPSSVSGAPGQRVTISCTGSGSNIGAPYDVSWYQQLPGTAPKLLIYHNNKRPSGVPDRFSASKSGTSASLAITGLQADDEADYYCQSYDSSLSGSVFGGGTKVTVL | – | 55.3 pM | 1500 pM | 139 pM | 62 pM |
| Antibody 15 (antibody, V domains shown, also called Ab15) VH: QVQLVQSGAEVKKPGASVKVSCKISGHSLSELSIHWVRQTPTKGFEWMGGFDPEENEIVYAQRFQGRVTMTEDTSIDTAYLTLSSLRSDDTAVYYCSIAGSIPGWAFDYWGKGTMVTVSS VL: QAVLTQPSSVSGAPGQRVTISCTGSGSNIGAPYDVSWYQQLPGTAPKLLIYHNNKRPSGVPDRFSASKSGTSASLAITGLQADDEADYYCQSYDSQLISAAFGGGTKVTVL | – | 164 pM | 1030 pM | – | – |
| Antibody 7 (antibody, V domains shown, also called Antibody 07; Ab7) VH: QVQLVQSGAEVKKPGASVKVSCKISGHSLSELSIHWVRQTPTKGFEWMGGFDPEENEIVYAQRFQGRVTMTEDTSIDTAYLTLSSLRSDDTAVYYCAIVGSFSGPVYGLWGKGTMVTVSS VL: QAVLTQPSSVSGAPGQRVTISCTGSGSNIGAPYDVSWYQQLPGTAPKLLIYHNNKRPSGVPDRFSASKSGTSASLAITGLQADDEADYYCQSYDSSLSGSVFGGGTKVTVL | – | 93.8 pM | 3930 pM | – | – |
| Antibody 5 (antibody, V domains shown, also called Antibody 05; Ab5) VH: QVQLVQSGAEVKKPGASVKVSCKISGHSLSELSIHWVRQTPTKGFEWMGGFDPEENEIVYAQRFQGRVTMTEDTSIDTAYLTLSSLRSDDTAVYYCAIVGSFSGYPYRPWGQGTMVTVSS VL: QAVLTQPSSVSGAPGQRVTISCTGSGSNIGAPYDVSWYQQLPGTAPKLLIYHNNKRPSGVPDRFSASKSGTSASLAITGLQADDEADYYCQSYDSSLSGSVFGGGTKVTVL | – | 9.3 pM | 847 pM | 67 pM | 30 pM |
| Antibody 20 (antibody, V domains shown, also called Ab20) VH: QVQLVQSGAEVKKPGASVKVSCKISGHSLSELSIHWVRQTPTKGFEWMGGFDPEENEIVYAQRFQGRVTMTEDTSIDTAYLTLSSLRSDDTAVYYCSIVGSFSPLTLGLWGKGTMVTVSS VL: QAVLTQPSSVSGAPGQRVTISCTGSGSNIGAPYDVSWYQQLPGTAPKLLIYHNNKRPSGVPDRFSASKSGTSASLAITGLQADDEADYYCATVDEALSGSVFGGGTKVTVL | – | 9.8 pM | 127 pM | – | 7.8 pM |

Reference: patent publication US20120141464A1 (ZENYTH OPERATIONS, published 2012)
